Here are results for three substances from publication PMC9122598, “NASP maintains histone H3–H4 homeostasis through two distinct H3 binding modes” (Nucleic Acids Research, 2022).

In test [1] the target is frog NASP.Sc dimer (X. laevis NASP.S a.a. 23–495, Δ97–314; 'NASP.S core') (Xenopus laevis) (UniProt P06180). The test is described as follows: SEC-MALS; single purified protein on Superdex 200 Increase 10/300 GL; 20 mM Tris pH 7.5, 0.5 M NaCl; room temperature. For orientation: Size exclusion chromatography separates by hydrodynamic size, large species first.
In test [2] the target is Histone H3 (MBP fusion) 116-135 (Homo sapiens) (UniProt P68431). The following applies: cited from earlier work.
Test [3] addresses sNASPc dimer (human sNASP a.a. 30–340, Δ101–159; 'sNASP core') (human) (UniProt P49321). Description: SEC-MALS; single purified protein on Superdex 200 Increase 10/300 GL; 20 mM Tris pH 7.5, 0.5 M NaCl; room temperature.

Chain of sNASP (P49321 2-788): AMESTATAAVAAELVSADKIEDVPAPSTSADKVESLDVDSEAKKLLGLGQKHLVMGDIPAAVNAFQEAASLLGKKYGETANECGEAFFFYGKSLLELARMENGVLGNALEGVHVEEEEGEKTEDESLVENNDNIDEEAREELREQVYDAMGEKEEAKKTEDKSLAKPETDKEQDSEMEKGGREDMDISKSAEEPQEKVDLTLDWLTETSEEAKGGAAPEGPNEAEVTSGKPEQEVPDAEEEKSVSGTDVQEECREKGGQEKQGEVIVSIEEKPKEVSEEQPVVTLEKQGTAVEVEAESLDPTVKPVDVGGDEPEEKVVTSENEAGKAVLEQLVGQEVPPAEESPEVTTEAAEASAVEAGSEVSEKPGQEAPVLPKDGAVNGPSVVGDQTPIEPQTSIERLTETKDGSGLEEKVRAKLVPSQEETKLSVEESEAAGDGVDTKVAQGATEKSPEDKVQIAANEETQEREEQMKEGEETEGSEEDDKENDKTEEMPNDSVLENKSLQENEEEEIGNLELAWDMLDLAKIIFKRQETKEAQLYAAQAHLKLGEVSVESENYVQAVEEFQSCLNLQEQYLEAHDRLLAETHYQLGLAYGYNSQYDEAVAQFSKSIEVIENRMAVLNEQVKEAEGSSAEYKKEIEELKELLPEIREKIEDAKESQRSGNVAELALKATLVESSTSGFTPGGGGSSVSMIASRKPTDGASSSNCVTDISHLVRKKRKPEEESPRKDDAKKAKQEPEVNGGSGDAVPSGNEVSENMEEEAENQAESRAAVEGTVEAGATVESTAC

By stoichiometry N is commonly meant the number of molecules, sites or subunits per partner or assembly. As to “frog NASP.Sc dimer (X. laevis NASP.S a.a. 23–495, Δ97–314; 'NASP.S core') (from UniProt P06180 23-495) (domain or fragment)”, the stoichiometry N in test [1] is 2.

In general, Kd refers to the equilibrium constant for the complex coming apart. For sNASP (from UniProt P49321), the Kd in test [2] is 0.061 µM.

Consider “sNASPc dimer (human sNASP a.a. 30–340, Δ101–159; 'sNASP core') (from UniProt P49321-2 30-340) (domain or fragment)”, for which the stoichiometry N in test [3] came out at 2.
